Assay results as given in publication doi:10.1101/2021.07.23.453429 (bioRxiv, 2021).

B1: cyclophilin D (enzyme)
chain: not shown

Assays:
[1] = biological target: full-length p53 (UniProt P04637 1-393); test: SPR
[2] = biological target: B1; test: SPR

| Binder | Kd [1] | Kd [2] |
| --- | --- | --- |
| B1 | ~1 µM |  |
| p53 NTD 20-70 (domain or fragment) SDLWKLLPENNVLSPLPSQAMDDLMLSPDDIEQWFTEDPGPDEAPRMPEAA |  | 9.4 µM |
